Holding throughout (experiment): cell-based or functional assay
For assay [1], the target named is human GLP-1 receptor (human, UniProt P43220 24-463).
Assay [2] has as its target human GCG receptor (human, UniProt P47871 26-477).
The target of assay [3] is T1, human GIP receptor (human, UniProt P48546 22-466).
T1 sequence (looked up): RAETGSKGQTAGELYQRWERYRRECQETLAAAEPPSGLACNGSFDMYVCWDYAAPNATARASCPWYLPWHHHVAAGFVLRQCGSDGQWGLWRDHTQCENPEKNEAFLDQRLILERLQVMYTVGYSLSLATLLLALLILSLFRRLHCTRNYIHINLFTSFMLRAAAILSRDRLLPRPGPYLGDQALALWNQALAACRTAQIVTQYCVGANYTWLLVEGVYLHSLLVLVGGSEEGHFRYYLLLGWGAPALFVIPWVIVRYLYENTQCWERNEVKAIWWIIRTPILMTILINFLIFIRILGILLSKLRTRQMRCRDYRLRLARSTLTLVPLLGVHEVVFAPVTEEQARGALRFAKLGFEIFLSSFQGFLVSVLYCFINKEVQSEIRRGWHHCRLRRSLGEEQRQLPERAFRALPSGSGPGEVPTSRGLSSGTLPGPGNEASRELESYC

Bridges are numbered along the chain shown (N, C = ends). Where no end group is shown, it is not given here. [ ]: non-standard residue; d: D form. The star is where a group is joined. Acetyl(2-(4-imidazolyl)) = O=C(Cc1c[nH]cn1)*; Aib = CC(C)(N)C(=O)O Where only a bound is given, the exact number is not on record here.

human GCG receptor, sequence (P47871 26-477): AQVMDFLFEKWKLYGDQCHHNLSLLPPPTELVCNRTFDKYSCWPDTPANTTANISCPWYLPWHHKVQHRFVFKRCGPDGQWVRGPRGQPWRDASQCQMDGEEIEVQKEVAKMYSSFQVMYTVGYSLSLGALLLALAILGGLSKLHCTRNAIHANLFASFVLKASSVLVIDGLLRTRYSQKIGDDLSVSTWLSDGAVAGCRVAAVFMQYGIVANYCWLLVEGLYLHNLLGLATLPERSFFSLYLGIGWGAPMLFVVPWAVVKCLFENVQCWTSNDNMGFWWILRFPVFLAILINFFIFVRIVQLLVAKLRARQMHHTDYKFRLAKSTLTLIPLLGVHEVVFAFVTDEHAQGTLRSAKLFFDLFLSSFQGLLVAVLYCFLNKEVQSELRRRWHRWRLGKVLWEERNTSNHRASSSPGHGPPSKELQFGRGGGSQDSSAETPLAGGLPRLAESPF

With H[Aib]QGTFTSDYSKYLDEKAAKEFVQWLLNTC (bridge 16-20) [triple agonist of SEQ ID NO: 29], the “In vitro activity (%) vs. GLP-1, cAMP EC50” value in assay [1] amounted to 38.5%. The “In vitro activity (%) vs. Glucagon, cAMP EC50” value in assay [2] stood at 6%. Further, in assay [3], the “In vitro activity (%) vs. GIP, cAMP EC50” value was less than 0.1%.
For H[Aib]QGTFTSDYSKYLDEKAQKEFVQWLLDTC (bridge 16-20) [triple agonist of SEQ ID NO: 30] the same measures were 142%, 0.7% and 0.8%.
On to Y[Aib]QGTFTSDYSKYLDECRAKEFVQWLLAQKGKKNDWKHNIT (bridge 16-20) [triple agonist of SEQ ID NO: 23], for which, in assay [1], the “In vitro activity (%) vs. GLP-1, cAMP EC50” value came to 4.01%. Besides, in assay [2], the “In vitro activity (%) vs. Glucagon, cAMP EC50” value was 9.3%. The “In vitro activity (%) vs. GIP, cAMP EC50” value in assay [3] was less than 0.1%.
Consider Y[Aib]QGTFTSDYSKCLDEKRAKEFVQWLLDHHPSSGQPPPS (bridge 16-20) [triple agonist of SEQ ID NO: 22], for which, in assay [1], the “In vitro activity (%) vs. GLP-1, cAMP EC50” value was 20.1%. The “In vitro activity (%) vs. Glucagon, cAMP EC50” value in assay [2] amounted to 140%. Further, in assay [3], the “In vitro activity (%) vs. GIP, cAMP EC50” value was 59.7%.
The matching figures for H[Aib]QGTFTSDYSKYLDEKACKEFVQWLLAQ (bridge 16-20) [triple agonist of SEQ ID NO: 31]: 135%, 2.2% and 2.4%.
H[Aib]QGTFTSDVSSYLLGQAAKQFIAWLVKGGGPSSGAPPPSC [triple agonist of SEQ ID NO: 3]: in assay [1], the “In vitro activity (%) vs. GLP-1, cAMP EC50” value stood at 1.8%. Also, the “In vitro activity (%) vs. Glucagon, cAMP EC50” value in assay [2] was less than 0.1%. The “In vitro activity (%) vs. GIP, cAMP EC50” value in assay [3] was less than 0.1%.
For [Acetyl(2-(4-imidazolyl))]GQGTFTSDLSIQYEEEAQQDFVEWLKDTGPSSGAPPPSHG [triple agonist of SEQ ID NO: 20], the “In vitro activity (%) vs. GLP-1, cAMP EC50” value in assay [1] was less than 0.1%. Further, the “In vitro activity (%) vs. Glucagon, cAMP EC50” value in assay [2] is less than 0.1%. Moreover, the “In vitro activity (%) vs. GIP, cAMP EC50” value in assay [3] was less than 0.1%.
For H[Aib]QGTFTSDYSKYLDEKRAQEFVCWLLAQKGKKNDWKHNIT [triple agonist of SEQ ID NO: 28], in assay [1], the “In vitro activity (%) vs. GLP-1, cAMP EC50” value is 17.2%. Also, the “In vitro activity (%) vs. Glucagon, cAMP EC50” value in assay [2] was determined as 1.6%. For the same molecule, the “In vitro activity (%) vs. GIP, cAMP EC50” value in assay [3] is less than 0.1%.
For Y[Aib]QGTFTSDYSKYLDECRAKEFVQWLLDHHPSSGQPPPS (bridge 16-20) [triple agonist of SEQ ID NO: 21] the same measures were 17.8%, 267% and 22.7%.
For H[Aib]QGTFTSDYSIAMDEIHQKDFVNWLLAQKC (bridge 16-20) [triple agonist of SEQ ID NO: 33], the “In vitro activity (%) vs. GLP-1, cAMP EC50” value in assay [1] was found to be 24.5%. Also, the “In vitro activity (%) vs. Glucagon, cAMP EC50” value in assay [2] is less than 0.1%. In addition, in assay [3], the “In vitro activity (%) vs. GIP, cAMP EC50” value is 10.4%.

The record behind these values is patent publication US20220088148A1 (HANMI PHARM, published 2022).
